Assay results: article PMC11658451, “The human Dicer helicase domain is capable of ATP hydrolysis and single-stranded nucleic acid binding” (BMC Biology, 2024)

How the values were obtained:
HEL = molecular target: T1, HEL (Homo sapiens, UniProt Q9UPY3); assay: ATP hydrolysis, PAGE of released […]; format: biochemical; details: labelled compound ([γ-32P]-ATP, 2 nM), HEL 2 nM (low turnover); 150 mM NaCl, 50 mM Tris-HCl pH 7.5, 2.5 mM MgCl2, 37 °C
T1 construct: gene DICER1; isolated helicase domain, residues 1-624, N-terminal His6 tag (pMCSG7), expressed in E. coli BL21Star, Ni-Sepharose purified
T1 sequence (Q9UPY3 1-624): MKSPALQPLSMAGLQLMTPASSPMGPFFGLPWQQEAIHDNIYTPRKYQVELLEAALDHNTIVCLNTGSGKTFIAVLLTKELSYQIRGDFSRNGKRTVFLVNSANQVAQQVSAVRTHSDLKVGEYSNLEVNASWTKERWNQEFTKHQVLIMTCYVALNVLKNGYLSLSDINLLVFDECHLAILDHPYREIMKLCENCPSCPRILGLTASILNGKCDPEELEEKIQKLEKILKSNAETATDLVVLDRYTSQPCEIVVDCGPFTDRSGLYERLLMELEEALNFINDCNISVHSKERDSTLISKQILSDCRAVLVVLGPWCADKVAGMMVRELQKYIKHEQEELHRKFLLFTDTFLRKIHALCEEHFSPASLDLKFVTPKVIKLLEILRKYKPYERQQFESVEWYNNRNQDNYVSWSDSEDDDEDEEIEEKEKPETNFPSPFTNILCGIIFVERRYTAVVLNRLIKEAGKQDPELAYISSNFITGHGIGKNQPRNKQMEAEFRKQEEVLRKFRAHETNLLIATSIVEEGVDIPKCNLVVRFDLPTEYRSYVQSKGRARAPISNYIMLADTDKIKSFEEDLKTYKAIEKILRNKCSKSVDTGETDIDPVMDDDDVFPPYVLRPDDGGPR

WT hDicer [1] = molecular target: T2, WT hDicer (Homo sapiens, UniProt Q9UPY3, K70A); assay: EMSA with radiolabelled ATP; details: labelled compound ([γ-32P]-ATP, 2 nM); 150 mM NaCl, 50 mM Tris-HCl pH 7.5, 2.5 mM MgCl2, 4 °C, no RNA; Walker A mutant; weak binding, Kd could not be determined
T2 construct: gene DICER1; full-length, 1922 aa, ~220 kDa; expressed in human 293T NoDice cells and purified; K70A variant from Addgene plasmid 41589

WT hDicer [2] = molecular target: T3, WT hDicer (Homo sapiens, UniProt Q9UPY3); assay: EMSA with radiolabelled ATP; format: binding
T3 construct: gene DICER1; full-length, 1922 aa, ~220 kDa; expressed in human 293T NoDice cells and purified; K70A variant from Addgene plasmid 41589

[3] = molecular target: T4, HEL (hDicer helicase domain) (Homo sapiens, UniProt Q9UPY3 1-624); assay: EMSA; 50 mM Tris-HCl pH 7.5, 150 mM NaCl; EMSA 15 min at room temperature (also 4 and 37 C), 5% native PAA gel in 1x TBE at 4 C; BLI 23 C; details: protein: recombinant; tags: N-terminal His6 (pMCSG7); label: 5' 32P (EMSA); none (BLI)
T4 sequence: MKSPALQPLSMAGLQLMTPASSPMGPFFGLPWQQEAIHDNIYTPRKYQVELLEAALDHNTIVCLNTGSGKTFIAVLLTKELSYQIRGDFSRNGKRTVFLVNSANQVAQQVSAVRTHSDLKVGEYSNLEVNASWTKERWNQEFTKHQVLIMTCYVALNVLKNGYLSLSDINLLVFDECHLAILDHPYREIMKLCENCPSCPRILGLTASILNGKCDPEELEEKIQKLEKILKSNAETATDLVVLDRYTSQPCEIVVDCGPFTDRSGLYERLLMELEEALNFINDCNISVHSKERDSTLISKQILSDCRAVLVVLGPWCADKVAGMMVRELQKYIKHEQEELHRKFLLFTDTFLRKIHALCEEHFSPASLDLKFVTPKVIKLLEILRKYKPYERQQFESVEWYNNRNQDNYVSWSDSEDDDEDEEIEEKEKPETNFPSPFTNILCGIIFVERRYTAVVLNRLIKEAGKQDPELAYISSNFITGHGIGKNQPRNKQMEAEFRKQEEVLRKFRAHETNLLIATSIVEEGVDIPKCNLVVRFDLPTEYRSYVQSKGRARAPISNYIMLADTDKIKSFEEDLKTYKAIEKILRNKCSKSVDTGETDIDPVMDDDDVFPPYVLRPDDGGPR

[4] = molecular target: T4, HEL (hDicer helicase domain); assay: BLI; 23 C, HEL immobilized; 50 mM Tris-HCl pH 7.5, 150 mM NaCl; EMSA 15 min at room temperature (also 4 and 37 C), 5% native PAA gel in 1x TBE at 4 C; BLI 23 C; details: protein: recombinant; tags: N-terminal His6 (pMCSG7); label: 5' 32P (EMSA); none (BLI)
[5] = molecular target: T4, HEL (hDicer helicase domain); assay: EMSA; up to 95 uM HEL; 50 mM Tris-HCl pH 7.5, 150 mM NaCl; EMSA 15 min at room temperature (also 4 and 37 C), 5% native PAA gel in 1x TBE at 4 C; BLI 23 C; details: protein: recombinant, tags: N-terminal His6 (pMCSG7)
[6] = molecular target: T4, HEL (hDicer helicase domain); assay: EMSA; distinct complex; 50 mM Tris-HCl pH 7.5, 150 mM NaCl; EMSA 15 min at room temperature (also 4 and 37 C), 5% native PAA gel in 1x TBE at 4 C; BLI 23 C; details: protein: recombinant; tags: N-terminal His6 (pMCSG7); label: 5' 32P (EMSA); none (BLI)
[7] = molecular target: T4, HEL (hDicer helicase domain); assay: SAXS; 1:1 complex; 50 mM Tris-HCl pH 7.5, 150 mM NaCl; EMSA 15 min at room temperature (also 4 and 37 C), 5% native PAA gel in 1x TBE at 4 C; BLI 23 C; details: protein: recombinant, tags: N-terminal His6 (pMCSG7), label: 5' 32P (EMSA), hairpin
[8] = molecular target: T4, HEL (hDicer helicase domain); assay: EMSA; 37 C; 50 mM Tris-HCl pH 7.5, 150 mM NaCl; EMSA 15 min at room temperature (also 4 and 37 C), 5% native PAA gel in 1x TBE at 4 C; BLI 23 C; details: protein: recombinant; tags: N-terminal His6 (pMCSG7); label: 5' 32P; unstructured
[9] = molecular target: T4, HEL (hDicer helicase domain); assay: EMSA; room temperature; 50 mM Tris-HCl pH 7.5, 150 mM NaCl; EMSA 15 min at room temperature (also 4 and 37 C), 5% native PAA gel in 1x TBE at 4 C; BLI 23 C; details: protein: recombinant; tags: N-terminal His6 (pMCSG7); label: 5' 32P; unstructured
[10] = molecular target: T4, HEL (hDicer helicase domain); assay: CD thermal melting; HEL transitions shift to 52 and 74 C; RNA transition 75 to 60 C; 50 mM Tris-HCl pH 7.5, 150 mM NaCl; EMSA 15 min at room temperature (also 4 and 37 C), 5% native PAA gel in 1x TBE at 4 C; BLI 23 C; details: protein: recombinant; tags: N-terminal His6 (pMCSG7); label: 5' 32P (EMSA); none (BLI); partly self-paired (predicted)
[11] = label: 5' 32P on one strand, blunt
[12] = label: 5' 32P on one strand, 3' overhang 2 nt on each end

T2 sequence (Q9UPY3 whole entry K70A): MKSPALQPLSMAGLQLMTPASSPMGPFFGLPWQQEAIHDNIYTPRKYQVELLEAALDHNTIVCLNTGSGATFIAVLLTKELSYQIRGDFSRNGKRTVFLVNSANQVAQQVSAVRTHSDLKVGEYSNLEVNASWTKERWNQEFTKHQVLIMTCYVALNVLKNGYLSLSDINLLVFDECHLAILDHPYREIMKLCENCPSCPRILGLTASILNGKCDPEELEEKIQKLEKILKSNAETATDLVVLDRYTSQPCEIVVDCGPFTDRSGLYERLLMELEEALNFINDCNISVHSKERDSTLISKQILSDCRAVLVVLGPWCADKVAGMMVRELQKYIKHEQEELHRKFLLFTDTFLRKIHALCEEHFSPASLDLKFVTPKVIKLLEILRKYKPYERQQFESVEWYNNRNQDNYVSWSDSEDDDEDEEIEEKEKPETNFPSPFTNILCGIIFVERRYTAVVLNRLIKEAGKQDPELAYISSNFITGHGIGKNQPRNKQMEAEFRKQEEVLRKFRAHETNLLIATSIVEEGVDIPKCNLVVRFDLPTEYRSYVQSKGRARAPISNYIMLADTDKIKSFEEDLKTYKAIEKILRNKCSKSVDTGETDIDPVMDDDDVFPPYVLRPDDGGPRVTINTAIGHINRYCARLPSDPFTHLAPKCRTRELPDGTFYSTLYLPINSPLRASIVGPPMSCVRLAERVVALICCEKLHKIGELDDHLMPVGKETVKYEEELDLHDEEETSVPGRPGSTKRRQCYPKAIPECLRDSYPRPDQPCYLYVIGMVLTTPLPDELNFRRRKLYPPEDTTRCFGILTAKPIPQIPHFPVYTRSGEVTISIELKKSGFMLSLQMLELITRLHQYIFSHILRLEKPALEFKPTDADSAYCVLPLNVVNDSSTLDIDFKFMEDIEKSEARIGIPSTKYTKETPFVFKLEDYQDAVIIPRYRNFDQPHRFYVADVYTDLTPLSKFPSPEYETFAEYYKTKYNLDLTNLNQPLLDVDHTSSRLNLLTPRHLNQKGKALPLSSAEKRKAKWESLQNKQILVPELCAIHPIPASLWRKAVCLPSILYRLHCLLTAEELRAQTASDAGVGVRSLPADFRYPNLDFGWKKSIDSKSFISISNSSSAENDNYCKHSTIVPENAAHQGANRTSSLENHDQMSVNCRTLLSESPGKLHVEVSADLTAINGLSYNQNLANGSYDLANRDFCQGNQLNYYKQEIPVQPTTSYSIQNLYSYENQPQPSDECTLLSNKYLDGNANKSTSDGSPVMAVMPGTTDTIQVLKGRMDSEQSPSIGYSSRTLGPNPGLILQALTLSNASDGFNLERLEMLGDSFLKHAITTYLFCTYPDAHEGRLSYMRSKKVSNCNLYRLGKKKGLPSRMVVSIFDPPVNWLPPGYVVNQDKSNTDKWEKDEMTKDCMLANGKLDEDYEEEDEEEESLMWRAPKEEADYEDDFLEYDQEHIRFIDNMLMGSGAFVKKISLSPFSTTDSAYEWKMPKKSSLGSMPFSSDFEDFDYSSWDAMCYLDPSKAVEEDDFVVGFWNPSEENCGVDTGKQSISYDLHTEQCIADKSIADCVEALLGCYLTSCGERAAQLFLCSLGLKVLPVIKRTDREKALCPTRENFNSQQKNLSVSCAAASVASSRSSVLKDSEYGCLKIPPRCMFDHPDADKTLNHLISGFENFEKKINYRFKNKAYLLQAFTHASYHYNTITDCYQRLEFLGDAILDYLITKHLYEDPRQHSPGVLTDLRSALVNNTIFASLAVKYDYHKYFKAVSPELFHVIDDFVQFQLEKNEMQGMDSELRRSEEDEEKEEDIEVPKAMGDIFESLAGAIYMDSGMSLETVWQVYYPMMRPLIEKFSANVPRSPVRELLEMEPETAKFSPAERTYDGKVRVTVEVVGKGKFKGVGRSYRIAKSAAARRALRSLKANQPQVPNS

Nc1ncnc2c1ncn2[C@@H]1O[C@H](COP(=O)(O)OP(=O)(O)OP(=O)(O)O)[C@@H](O)[C@H]1O [ATP]
ATP hydrolysis, PAGE of released 32Pi (HEL): ATP was hydrolyzed in reactions carried out with HEL (Fig. 2a) and WT hDicer | EMSA with radiolabelled ATP (WT hDicer [1]): only weak ATP binding could be observed for hDicer_K70A | Kd (WT hDicer [2]): ~0.085 µM

GGGAGAATCATAAGTAGCCTCCCCCCATGTTAACAGTTAGCC (ssDNA) [D42]
Kd [3]: ~8.5 µM | Kd [4]: ~22 µM

B1: D56 (ssDNA)
DNA: GGGAGAATCATAAGTAGCGCAGTGAGTCGTTGTGCTGCCCATGTTAACAGTTAGCC
Kd [3]: ~7.4 µM | Kd [4]: ~21 µM

GAATCTTAACGC (ssDNA) [D12]
binding result ([5]; label: 5' 32P): no binding

GTGCATTGTAGTTGCATTGCATGTTCTGGTCA (ssDNA) [D32]
binding result [6]: binds

B2: R56 (ssRNA)
RNA: GGGAGAAUCAUAAGUAGCGCAGUGAGUCGUUGUGCUGCCCAUGUUAACAGUUAGCC
Kd [4]: ~23 µM

B3: pre-mir-21 (structured_RNA)
RNA: AGCUUAUCAGACUGAUGUUGACUGUUGAAUCUCAUGGCAACACCAGUCGAUGGGCUGU
binding result [7]: binds

B4: pre-mir-16-1 (structured_RNA)
RNA: UAGCAGCACGUAAAUAUUGGCGUUAAGAUUCUAAAAUUAUCUCCAGUAUUAACUGUGCUGCUGAA
binding result ([7]; 9-nt apical loop): binds

B5: dsRNA_blunt (dsRNA)
RNA 1: GUGCAUUGUAGUUGCAUUGCAUGUUCUGGUCA
RNA 2: UGACCAGAACAUGCAAUGCAACUACAAUGCAC
binding result [5, 11]: no binding

B6: dsRNA_over (dsRNA)
RNA 1: GUGCAUUGUAGUUGCAUUGCAUGUUCUGGUCA
RNA 2: ACCAGAACAUGCAAUGCAACUACAAUGCACAU
binding result [5, 12]: no binding

B7: dsDNA_blunt (dsDNA)
DNA 1: GTGCATTGTAGTTGCATTGCATGTTCTGGTCA
DNA 2: TGACCAGAACATGCAATGCAACTACAATGCAC
binding result [5, 11]: no binding

B8: dsDNA_over (dsDNA)
DNA 1: GTGCATTGTAGTTGCATTGCATGTTCTGGTCA
DNA 2: ACCAGAACATGCAATGCAACTACAATGCACAT
binding result [5, 12]: no binding

CUCUCUCUCUCUCUCUCUCUCUCUCUCUCUCUCUCUCUCUCU (ssRNA) [(CU)21]
binding result [8]: binds

ACACACACACACACACACACACACACACACACACACACACAC (ssRNA) [(AC)21]
binding result [9]: binds

GGGAGAAUCAUAAGUAGCCUCCCCCCAUGUUAACAGUUAGCC (ssRNA) [R42]
binding result [10]: binds

GAAUCUUAACGC (ssRNA) [R12]
binding result ([5]; label: 5' 32P): no binding
